This note sets out measurements from publication doi:10.1101/2024.09.10.612331.

The term stoichiometry N denotes a count of units in the complex or per binding partner. For orientation: Kd means the equilibrium constant for the complex coming apart. A higher Kd goes with a looser complex.

The target in series [1] is ALX4 homeodomain V241R (V28R) (mouse cDNA (identical to human in this region, as the paper says)). As to the kind of experiment: native gel or EMSA. (A gel shift assay detects complexes by their altered migration in electrophoresis.)
For series [2], the target named is ALX4 homeodomain R216A (R3A) (mouse cDNA (identical to human in this region, as the paper says)). In words: native gel or EMSA.
The target in series [3] is ALX4 homeodomain R215A (R2A) (mouse cDNA (identical to human in this region, as the paper says)). In words: native gel or EMSA.
For series [4], the target named is ALX4 homeodomain (aa 209-274) (mouse cDNA (identical to human in this region, as the paper says)). In words: crystal structure.
Series [5] shares this target. As to the kind of experiment: native gel or EMSA.
The next series deals with ALX4 R272P (mouse cDNA (human protein sequence …, UniProt O35137 158-291, R260P)). In words: ITC. For orientation: In ITC the heat of successive injections is recorded.
The target in another series is ALX4 R216G (mouse cDNA (human protein sequence …, UniProt O35137 158-291, R204G)). In words: ITC.
In another series the target is ALX4 V241R (mouse cDNA (human protein sequence …, UniProt O35137 158-291, V229R)). In words: ITC.
The target in another series is ALX4 R216A (mouse cDNA (human protein sequence …, UniProt O35137 158-291, R204A)). In words: ITC.
Another series addresses ALX4 Q225E (mouse cDNA (human protein sequence …, UniProt O35137 158-291, Q213E)). In words: ITC.
The target in the next series is ALX4 R218Q (mouse cDNA (human protein sequence …, UniProt O35137 158-291, R206Q)). As to the kind of experiment: ITC.
The target of another series is ALX4 R215A;R216A (mouse cDNA (human protein sequence …, UniProt O35137 158-291, R203A;R204A)). As to the kind of experiment: ITC.
The target in series [6] is ALX4 WT (ITC, mutant-series EMSA) (mouse cDNA (human protein sequence …, UniProt O35137 158-291)). In words: ITC.
The target in the next series is ALX4 K211E (mouse cDNA (human protein sequence …, UniProt O35137 158-291, K199E)). As to the kind of experiment: ITC.
For the next series, the target named is ALX4 R215A (mouse cDNA (human protein sequence …, UniProt O35137 158-291, R203A)). In words: ITC.
Chain of ALX4 R215A (mouse cDNA (O35137 158-291 R203A): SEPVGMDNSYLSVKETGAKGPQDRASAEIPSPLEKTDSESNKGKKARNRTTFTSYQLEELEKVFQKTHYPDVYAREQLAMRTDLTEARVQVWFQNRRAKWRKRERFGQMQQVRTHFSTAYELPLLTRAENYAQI

Chain of ALX4 R218Q (mouse cDNA (O35137 158-291 R206Q): as the sequence (O35137 158-291 R203A) above, with A46R, R49Q counted along it
Chain of ALX4 R215A;R216A (mouse cDNA (O35137 158-291 R203A/R204A): as the sequence (O35137 158-291 R203A) above, with R47A counted along it
Chain of ALX4 Q225E (mouse cDNA (O35137 158-291 Q213E): as the sequence (O35137 158-291 R203A) above, with A46R, Q56E counted along it
Chain of ALX4 WT (ITC, mutant-series EMSA) (mouse cDNA (O35137 158-291, stated change not applied): as the sequence (O35137 158-291 R203A) above, with A46R counted along it
Chain of ALX4 R216A (mouse cDNA (O35137 158-291 R204A): as the sequence (O35137 158-291 R203A) above, with A46R, R47A counted along it
Chain of ALX4 R216G (mouse cDNA (O35137 158-291 R204G): as the sequence (O35137 158-291 R203A) above, with A46R, R47G counted along it
Chain of ALX4 R272P (mouse cDNA (O35137 158-291 R260P): as the sequence (O35137 158-291 R203A) above, with A46R, R103P counted along it
Chain of ALX4 K211E (mouse cDNA (O35137 158-291 K199E): as the sequence (O35137 158-291 R203A) above, with K42E, A46R counted along it
Chain of ALX4 V241R (mouse cDNA (O35137 158-291 V229R): as the sequence (O35137 158-291 R203A) above, with A46R, V72R counted along it

On to “ALX4 homeodomain V241R (V28R) (domain or fragment)”, for which the Tau (cooperativity factor on the P3 DNA site) in series [1] was 0.327.

In turn, “ALX4 homeodomain R216A (R3A) (domain or fragment)” displayed a fold reduction of cooperativity (Tau on the P3 site) against wild type in series [2] of 10 fold.

In series [3], “ALX4 homeodomain R215A (R2A) (domain or fragment)” gave a fold reduction of cooperativity (Tau on the P3 site) against wild type of 5 fold.

As for “ALX4 homeodomain (aa 209-274) (domain or fragment)”, the stoichiometry N in series [4] worked out at 2. For the same molecule, in series [5], the Tau (cooperativity factor on the P3 DNA site) is 110 and the Tau (cooperativity factor on the P4 DNA site) was determined as 1.5.

B1: 14-mer monomer site ITC duplex (dsDNA)
DNA 1: CGCTAATTAGCTCG
DNA 2: CGAGCTAATTAGCG
As for B1, the Kd turned out to be 43.6 ± 12.1 nM with ALX4 R272P; 41.8 ± 8.81 nM with ALX4 R216G; 7.45 ± 5.22 nM in the series with ALX4 V241R; 15.2 ± 4.63 nM with ALX4 R216A; 52.5 ± 12.3 nM with ALX4 Q225E; 214 ± 39.8 nM in the series with ALX4 R215A;R216A. Further, the Kd is 15.5 ± 0.98 nM in series [6], 21.5 ± 7.68 nM with ALX4 K211E and 30.4 ± 18.5 nM with ALX4 R215A. The binding result with ALX4 R218Q was “no binding”.
